What was measured:
Format in all cases: biochemical
[1] = Metabolism of tivantinib by P450 aluC09 and mutants; settings: percent of substrate being converted; 0.125 mg/ml, 27° C., 16-20 hours; [CYP] per enzyme as in Table 8
Procedure: (§1) Lyophilised material of mutants of CYP450aluC09, ferredoxinaluF03 and ferredoxin reductaseSCF15A was made as described in examples 3 and 4 and suspended in water (0.5 mL per vial) and biocatalysis was performed at 27° C. in the following conditions: 50 mM potassium phosphate pH 7.4, 5 mM MgCl2, 0.125 mg/ml substrate compound such as diclofenac (Sigma-Aldrich, UK), Aceclofenac (Tokyo Chemical Industry UK Ltd, UK), Indomethacin (Sigma-Aldrich, UK), Flufenamic acid (Sigma-Aldrich, UK), Napropamide (Sigma-Aldrich, UK), celecoxib (LC Laboratories, USA), valsartan (Tokyo Chemical Industry UK Ltd, UK), ruxolitinib (LC Laboratories, USA), 4-pyrrolidylacetophenone (Sigma-Aldrich, UK), tofacitinib (LC Laboratories, USA), bosentan (CarboSynth Ltd, UK), buparvaquone (MedChemtronica, Sweden), BIRB796 (Stratech Scientific Limited, UK), epothilone B (LC Laboratories, USA), ritonavir (Tokyo Chemical Industry UK Ltd, UK) or tivantinib (MedChemtronica, Sweden), P450AluC09 (concentration as in Table 8), 5 mM G6P, 1 mM NADP, 2 UN/ml G6PDH in a final volume of 100 μL. After 16-20 hours at 200 rpm (5 cm orbital shaker, Kuhner AG, Switzerland), reactions were extracted with an equal volume of acetonitrile, centrifuged to remove precipitated proteins and conversion assessed by UPLC-MS analysis.
(§2) However, of particular note when considering P450 concentration are the results for mutants M12, M20 and M34, as well as the deleterious impact on the range of substrate utility in mutants M39 and M40.

[2] = Metabolism of epothilone B by P450 aluC09 and mutants; settings: percent of substrate being converted; 0.125 mg/ml, 27° C., 16-20 hours; [CYP] per enzyme as in Table 8
Procedure: as §1, §2

[3] = O-demethylation of indomethacin catalysed by cytochrome P450 aluC09 and mutants; settings: % by UV peak area at 275 nm; 0.125 mg/ml substrate, 27° C., 16-20 hours
Procedure: as §1
(§3) UPLC data was obtained as follows:
(§4) Column: Acquity UPLC BEH Shield RP18 1.7 μm 2.1 mm i.d. 50 mm length
(§5) Solvents: H2O, B: Acetonitrile, both with 0.1% Formic acid
(§6) Detector: Waters Acquity UPLC PDA (UV-Vis detection) and Waters Acquity UPLC QDA (MS)

[4] = Metabolism of bosentan by P450 aluC09 and mutants; settings: percent of substrate being converted; 0.125 mg/ml, 27° C., 16-20 hours; [CYP] per enzyme as in Table 8
Procedure: as §1, §2

[5] = Metabolism of 4-pyrrolidylacetophenone by P450 aluC09 and mutants; settings: percent of substrate being converted; 0.125 mg/ml, 27° C., 16-20 hours; [CYP] per enzyme as in Table 8
Procedure: as §1, §2

[6] = Metabolism of celecoxib by P450 aluC09 and mutants; settings: percent of substrate being converted; 0.125 mg/ml, 27° C., 16-20 hours; [CYP] per enzyme as in Table 8
Procedure: as §1, §2

[7] = Metabolism of tofacitinib by P450 aluC09 and mutants; settings: percent of substrate being converted; 0.125 mg/ml, 27° C., 16-20 hours; [CYP] per enzyme as in Table 8
Procedure: as §1, §2

[8] = Hydroxylation of flufenamic acid catalysed by cytochrome P450 aluC09 and mutants
Procedure: as §1, §3, §4, §5, §6
Flufenamic acid elutes at 1.93 minutes, hydroxy-flufenamic acid 1 elutes at 1.68 minutes and hydroxy-flufenamic acid 2 elutes at 1.65 minutes.

[9] = Metabolism of buparvaquone by P450 aluC09 and mutants; settings: percent of substrate being converted; 0.125 mg/ml, 27° C., 16-20 hours; [CYP] per enzyme as in Table 8
Procedure: as §1, §2

[10] = Metabolism of ruxolitinib by P450 aluC09 and mutants; settings: percent of substrate being converted; 0.125 mg/ml, 27° C., 16-20 hours; [CYP] per enzyme as in Table 8
Procedure: as §1, §2

[11] = Metabolism of BIRB796 by P450 aluC09 and mutants; settings: percent of substrate being converted; 0.125 mg/ml, 27° C., 16-20 hours; [CYP] per enzyme as in Table 8
Procedure: as §1, §2

[12] = Hydroxylation of aceclofenac catalysed by cytochrome P450 aluC09 and mutants
Procedure: as §1, §3, §4, §5, §6
Chromatograms are provided in FIGS. 5a-c; aceclofenac elutes at 1.80 minutes, hydroxy-aceclofenac acid 1 elutes at 1.64 minutes, hydroxy-aceclofenac acid 2 elutes at 1.60 minutes and dihydroxy-aceclofenac elutes at 1.42 minutes.

[13] = Hydroxylation of diclofenac catalysed by cytochrome P450 aluC09 and mutants (UPLC-PDA-MS)
Procedure: as §1, §3, §4, §5, §6
Illustrative results for the hydroxylation of diclofenac by CYP450aluC09 and selected T291x mutants are summarised below in Table 3 with representative chromatograms resented in FIG. 3a-c; retention times: diclofenac 1.85-1.88 minutes, 5-hydroxydiclofenac 1.60-1.63 minutes, 4′-hydroxydiclofenac 1.65-1.68 minutes, 4′,5-dihydroxydiclofenac 1.40-1.42 minutes. The chromatographic retention times and mass spectra coincided with those of authentic samples.

[14] = Metabolism of valsartan by P450 aluC09 and mutants; settings: percent of substrate being converted; 0.125 mg/ml, 27° C., 16-20 hours; [CYP] per enzyme as in Table 8
Procedure: as §1, §2

[15] = Metabolism of ritonavir by P450 aluC09 and mutants; settings: percent of substrate being converted; 0.125 mg/ml, 27° C., 16-20 hours; [CYP] per enzyme as in Table 8
Procedure: as §1, §2

[16] = Hydroxylation / de-N-ethylation of napropamide catalysed by cytochrome P450 aluC09 and mutants
Procedure: as §1, §3, §4, §5, §6
Napropamide elutes at 1.76 minutes, unidentified metabolite (−2 Da) elutes at 1.90 minutes, desethyl-napropamide elutes at 1.62 minutes, hydroxy-napropamide 1 elutes at 1.53 minutes and hydroxy-napropamide 2 elutes at 1.52 minutes and the desethyl-hydroxy-napropamide product elutes at 1.41 minutes.

[17] = % by UV peak area at 275 nm, 0.125 mg/ml substrate, 27° C., 16-20 hours

B1: aluC09M33: cytochrome P450 aluC09 mutant T291I; amino acid sequence SEQ ID NO: 44 (protein, listed as Amycolatopsis lurida)
chain: MTDVEETTATLPLARKCPFSPPPEYERLRRESPVSRVGLPSGQTAWALTRLEDIREMLSSPHFSSDRQSPSFPLMVARQIRREDKPFRPSLIAMDPPEHSRARRDVVGEFTVKRMKALQPRIQQIVDEHLDALLAGPKPADLVQALSLPVPSLVICELLGVPYSDHEFFQSCSSRMLSREVTAEERMTAFEQLENYLDELVTKKEANATEDDLLGRQILKQRETGEADHGELVGLAFLLLIAGHETTANMISLGTVTLLENPDQLAKIKADPGKTLAAIEELLRVFTIAEIATSRFATADVEIGGTLIRAGEGVVGLSNAGNHDPDGFENPDTFDIERGARHHVAFGFGVHQCLGQNLARLELQIVFDTLFRRVPGLRIAVPVDELPFKHDSTIYGLHALPVTW
% conversions (avg) Tivantinib [1]: 29.6%
% conversions (avg) Epothilone B [2]: 21.8%
Indomethacin (1.74 mins) [3]: 92.8%
O-demethyl-Indomethacin (1.52 mins) [3]: 7.2%
% conversions (avg) Bosentan [4]: 98.9%
% conversions (avg) 4-pyrrolidylacetophenone [5]: 7.9%
% conversions (avg) Celecoxib [6]: 2.8%
% conversions (avg) Tofacitinib [7]: 1.1%
Flufenamic Acid (Substrate) 1.93 mins [8, 17]: 98.3%
Hydroxy-Flufenamic Acid (1) 1.69 mins [8, 17]: 1.0%
Hydroxy-Flufenamic Acid (2) 1.65 mins [8, 17]: 0.6%
Hydroxylated Ratio 1:2 ([8]; flufenamic acid, ratio of UV peak areas at 275 nm): 1.6
% conversions (avg) Buparvaquone [9]: 8.2%
% conversions (avg) Ruxolitinib [10]: 30.6%
% conversions (avg) BIRB796 [11]: 13.5%
regioselectivity of hydroxylation of aceclofenac compared to the wild-type enzyme [12]: reversal of the regioselectivity
Aceclofenac (Substrate) (1.80 mins) [12, 17]: 30.8%
Dihydroxy-Aceclofenac (1.42 mins) [12, 17]: 8.8%
Hydroxy-Aceclofenac (1) (1.64 min) [12, 17]: 41.7%
Hydroxy-Aceclofenac (2) (1.60 min) [12, 17]: 18.6%
Hydroxylated Ratio 2:1 ([12]; aceclofenac, ratio of UV peak areas at 275 nm): 0.4
4′,5-dihydroxy-diclofenac 1.38 mins [13, 17]: 1.1%
4′-hydroxy-diclofenac (1) 1.62 mins [13, 17]: 29.5%
5-hydroxy-diclofenac (2) 1.58 mins [13, 17]: 6.7%
Diclofenac (Substrate) 1.81 mins [13, 17]: 63.3%
regioselectivity of hydroxylation (product ratio 4′-hydroxydiclofenac : 5-hydroxydiclofenac) ([13]; diclofenac): over four-fold
Hydroxylated Ratio hydroxy 1:hydroxy 2 ([13]; diclofenac, ratio of UV peak areas at 275nm): 4.4
% conversions (avg) Valsartan [14]: 12.4%
% conversions (avg) Ritonavir [15]: 41.3%
Desethyl Napropamide (1.62 min) [16, 17]: 30.6%
Desethyl-hydroxy-Napropamide (1.41 min) [16, 17]: 5.7%
Hydroxy-Napropamide (1) (1.53 min) [16, 17]: 1.8%
Hydroxy-Napropamide (2), (1.52 min) [16, 17]: 4.1%
M-2Da (unidentified) (1.89 min) [16, 17]: 5.1%
Napropamide (substrate) [16, 17]: 56.0%
Hydroxylated Ratio 2:1 ([16]; napropamide, ratio of UV peak areas): 2.3

— US11618906B2, “Hydroxylation techniques” (HYPHA DISCOVERY LTD., priority 2018, dated 2023)
